Read-outs that look alike come from different tables or passages of the source.
Columns and labels:
[1] = biological target: SARS-CoV-2 wild type spike protein (on reporter virus particles) (SARS-CoV-2) (UniProt P0DTC2); experiment: cell-based or functional assay
[2] = biological target: SARS-CoV-2 WT RBD (SARS-CoV-2) (UniProt P0DTC2); experiment: Octet BLI single point, monovalent
[3] = biological target: SARS-CoV-2 wild type spike protein (on reporter virus particles) (SARS-CoV-2) (UniProt P0DTC2); experiment: cell-based or functional assay; remark: listed apart in the source
[4] = biological target: SARS-CoV-1 spike protein (SARS-CoV-1) (UniProt P59594); experiment: cell-based or functional assay
[5] = biological target: Bat coronavirus WIV16 spike protein (Bat coronavirus WIV16); experiment: cell-based or functional assay

| Substance | PSV IC50 [1] [µg/mL] | PsV neutralization IC50 [1] [µg/mL] | PsV neutralization IC90 [1] [µg/mL] | SARS2 IC50 [1] [nM] | WT PsV IC50 [1] [nM] | Kd [2] [nM] | PsV neutralization IC50 [3] [µg/mL] | PsV neutralization IC90 [3] [µg/mL] | PsV neutralization IC50 [4] [µg/mL] | PsV neutralization IC90 [4] [µg/mL] | PsV neutralization IC50 [5] [µg/mL] | PsV neutralization IC90 [5] [µg/mL] |
| --- | --- | --- | --- | --- | --- | --- | --- | --- | --- | --- | --- | --- |
| RGN10933 (antibody) | 0.028 | 0.0067 | 0.081 | 0.022 | 0.185 | 3.62 | 0.002 | 0.024 | – | – | – | – |
| RGN10987 (antibody) | 0.031 | – | – | – | 0.292 | 9.13 | 0.007 | 0.078 | – | – | – | – |
| S309 (antibody) | – | – | – | – | 6.56 | – | 0.009 | 0.051 | 0.01 | 0.043 | 0.016 | 0.305 |

— patent publication US20260217797A1
